Data reported in patent US9695228B2, “EGFR and c-Met fibronectin type III domain binding molecules” (Janssen Biotech, Inc., priority 2012, dated 2017).
Residue numbers refer to the chain shown, from its start. In names and notes the source's numbering stands. Where two headings read alike, the source gives them in different places.

B1: A3 M72S: serine mutant of c-Met domain A3 in the context of ECB15, SEQ ID NO: 220 (protein)
chain: LPAPKNLVVSRVTEDSARLSWTAPDAAFDSFWIRYFEFLGSGEAIVLTVPGSERSYDLTGLKPGTEYVVNISGVKGGKISPPLSAIFTT
modifications: c-Met binding FN3 domain
B2: A3 R34S: serine mutant of c-Met domain A3 in the context of ECB15, SEQ ID NO: 221 (protein)
chain: B1 chain with R34S, S72M
modifications: c-Met binding FN3 domain
B3: A3 179S: serine mutant of c-Met domain A3 in the context of ECB15, SEQ ID NO: 223 (protein)
chain: B1 chain with S72M, I79S
modifications: c-Met binding FN3 domain
B4: P114AR7P92-G8: c-Met-binding FN3 domain, SEQ ID NO: 36 (protein)
chain: B1 chain with W32V, N70Q, S72L, K78Y, P81I
modifications: c-Met binding FN3 domain
B5: P114AR7P92-H5: c-Met-binding FN3 domain, SEQ ID NO: 37 (protein)
chain: B1 chain with F36L, G40L, S41G, N70Q, S72M, K78T, I79V
modifications: c-Met binding FN3 domain
B6: P114AR7P93-G8: c-Met-binding FN3 domain, SEQ ID NO: 39 (protein)
chain: B1 chain with G60D, V68G, N70T, S72N, K78R, I79V, P81T
modifications: c-Met binding FN3 domain
B7: P114AR7P93-H9: c-Met-binding FN3 domain, SEQ ID NO: 40 (protein)
chain: B1 chain with N70Q, S72I, K78H, P81L
modifications: c-Met binding FN3 domain
B8: P114AR7P94-A3: c-Met-binding FN3 domain, SEQ ID NO: 41 (protein)
chain: B1 chain with S72M
modifications: c-Met binding FN3 domain
B9: P114AR7P94-E5: c-Met-binding FN3 domain, SEQ ID NO: 42 (protein)
chain: B1 chain with V68A, S72M, K78R, I79V, P81V
modifications: c-Met binding FN3 domain
B10: P114AR7P95-D4: c-Met-binding FN3 domain, SEQ ID NO: 45 (protein)
chain: B1 chain with N70Q, S72L, K78Y, P81I
modifications: c-Met binding FN3 domain
B11: A3 N70S: serine mutant of c-Met domain A3 in the context of ECB15, SEQ ID NO: 216 (protein)
chain: B1 chain with N70S, S72M
modifications: c-Met binding FN3 domain
B12: A3 P81S: serine mutant of c-Met domain A3 in the context of ECB15, SEQ ID NO: 217 (protein)
chain: B1 chain with S72M, P81S
modifications: c-Met binding FN3 domain
B13: A3 F36S: serine mutant of c-Met domain A3 in the context of ECB15, SEQ ID NO: 218 (protein)
chain: B1 chain with F36S, S72M
modifications: c-Met binding FN3 domain
B14: A3 W32S: serine mutant of c-Met domain A3 in the context of ECB15, SEQ ID NO: 219 (protein)
chain: B1 chain with W32S, S72M
modifications: c-Met binding FN3 domain
B15: A3 F38S: serine mutant of c-Met domain A3 in the context of ECB15, SEQ ID NO: 222 (protein)
chain: B1 chain with F38S, S72M
modifications: c-Met binding FN3 domain
B16: A3 K78S: serine mutant of c-Met domain A3 in the context of ECB15, SEQ ID NO: 212 (protein)
chain: B1 chain with S72M, K78S
modifications: c-Met binding FN3 domain
B17: A3 G40S: serine mutant of c-Met domain A3 in the context of ECB15, SEQ ID NO: 213 (protein)
chain: B1 chain with G40S, S72M
modifications: c-Met binding FN3 domain
B18: A3 L39S: serine mutant of c-Met domain A3 in the context of ECB15, SEQ ID NO: 214 (protein)
chain: B1 chain with L39S, S72M
modifications: c-Met binding FN3 domain
B19: A3 V68S: serine mutant of c-Met domain A3 in the context of ECB15, SEQ ID NO: 215 (protein)
chain: B1 chain with V68S, S72M
modifications: c-Met binding FN3 domain

Key:
[1] = test system: H292-HGF human lung cancer xenograft; assay type: in vivo; conditions: for Tumor Size at day 23: day 23 after tumor inoculation, doses as printed with treatment
Description: The H292-HGF cells were maintained in vitro in RPMI1640 medium supplemented with fetal bovine serum (10% v/v), and L-glutamine (2 mM) at 37° C. in an atmosphere of 5% CO2 in air. The cells were routinely subcultured twice weekly by trypsin-EDTA treatment. The cells growing in an exponential growth phase were harvested and counted for tumor inoculation.
Each mouse was inoculated subcutaneously at the right flank region with H292-HGF tumor cells (2×10^6) in 0.1 ml of PBS with cultrex (1:1) for tumor development. The treatments were started when the mean tumor size reached 139 mm^3. […] The date of tumor cell inoculation was denoted as day 0.
Before commencement of treatment, all animals were weighed and the tumor volumes were measured. Since the tumor volume can affect the effectiveness of any given treatment, mice were assigned into groups using randomized block design based upon their tumor volumes. […] The randomized block design was used to assign experimental animals to groups. First, the experimental animals were divided into homogeneous blocks according to their initial tumor volume. Secondly, within each block, randomization of experimental animals to treatments was conducted.
At the time of routine monitoring, the animals were checked for any effects of tumor growth and treatments on normal behavior, such as mobility, visual estimation of food and water consumption, body weight gain/loss (body weights were measured twice weekly), eye/hair matting and any other abnormal effect.
The endpoint was whether tumor growth can be delayed or tumor bearing mice can be cured. Tumor size was measured twice weekly in two dimensions using a caliper, and the volume was expressed in mm^3 using the formula: V=0.5 a×b^2 where a and b are the long and short diameters of the tumor, respectively. The tumor size was then used for calculations of both T-C and T/C values. T-C was calculated with T as the time (in days) required for the mean tumor size of the treatment group to reach 1000 mm^3, and C was the time (in days) for the mean tumor size of the control group to reach the same size. The T/C value (in percent) was an indication of antitumor efficacy; T and C were the mean tumor volume of the treated and control groups, respectively, on a given day. Complete tumor regression (CR) is defined as tumors that are reduced to below the limit of palpation (62.5 mm^3). Partial tumor regression (PR) is defined as tumors that are reduced from initial tumor volume. A minimum duration of CR or PR in 3 or more successive tumor measurements is required for a CP or PR to be considered durable.
Animals for which the body weight loss exceeded 20%, or for which the mean tumor size of the group exceeds 2000 mm^3 were euthanized. The study was terminated after two weeks of observation after the final dose.
Statistical analyses of difference in tumor volume among the groups were evaluated using a one-way ANOVA followed by individual comparisons using Games-Howell (equal variance not assumed). All data were analyzed using SPSS 18.0. p<0.05 was considered to be statistically significant.

c-Met-Fc fusion protein = target: T1, c-Met-Fc fusion protein (Homo sapiens, UniProt P08581); experiment: c-Met-Fc affinity by surface plasmon resonance (ProteOn); assay type: binding; conditions: for binding to c-Met (in words): SPR; for Kd / ka / kd: serine mutants of A3 in the context of ECB15, SPR
T1 construct: recombinant EGFR and/or c-Met extracellular domain was further analyzed by surface Plasmon resonance

[2] = Differential scanning calorimetry in PBS (thermal stability); assay type: physicochemical; conditions: DSC in PBS, c-Met-binding FN3 domains

T1 sequence (P08581 25-932 limits assumed): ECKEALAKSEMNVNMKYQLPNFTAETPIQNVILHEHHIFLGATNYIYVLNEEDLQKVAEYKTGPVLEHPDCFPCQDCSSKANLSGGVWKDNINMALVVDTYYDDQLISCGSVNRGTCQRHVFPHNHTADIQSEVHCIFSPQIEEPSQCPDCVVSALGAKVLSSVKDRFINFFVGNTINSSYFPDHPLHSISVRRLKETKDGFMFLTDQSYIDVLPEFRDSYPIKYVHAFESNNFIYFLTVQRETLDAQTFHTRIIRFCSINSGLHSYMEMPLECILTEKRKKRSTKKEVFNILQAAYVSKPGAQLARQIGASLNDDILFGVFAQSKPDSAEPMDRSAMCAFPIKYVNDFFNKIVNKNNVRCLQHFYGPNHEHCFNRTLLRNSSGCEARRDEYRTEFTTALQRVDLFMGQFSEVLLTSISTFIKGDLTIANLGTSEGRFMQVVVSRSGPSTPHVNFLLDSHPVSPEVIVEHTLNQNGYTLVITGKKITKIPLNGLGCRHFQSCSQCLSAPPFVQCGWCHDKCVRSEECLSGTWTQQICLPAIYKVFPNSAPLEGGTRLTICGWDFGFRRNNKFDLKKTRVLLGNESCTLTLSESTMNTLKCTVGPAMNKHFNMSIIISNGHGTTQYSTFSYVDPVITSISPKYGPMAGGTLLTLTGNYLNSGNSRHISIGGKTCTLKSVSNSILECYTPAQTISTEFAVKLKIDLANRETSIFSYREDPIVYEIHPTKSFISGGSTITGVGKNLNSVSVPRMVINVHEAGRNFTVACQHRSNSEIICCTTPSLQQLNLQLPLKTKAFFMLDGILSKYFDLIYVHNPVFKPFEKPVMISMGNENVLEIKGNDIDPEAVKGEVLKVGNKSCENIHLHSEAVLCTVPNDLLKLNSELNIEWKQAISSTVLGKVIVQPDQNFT

| Molecule | Thermal Stability (Tm) [2] | ka (c-Met-Fc fusion protein) | kd (c-Met-Fc fusion protein) | other results |
| --- | --- | --- | --- | --- |
| C[C@@H](Oc1cc(-c2cnn(C3CCNCC3)c2)cnc1N)c1c(Cl)ccc(F)c1Cl [Crizotinib, crizotinib, reference compound] |  |  |  | T-C at 1000 mm^3 (tumor growth delay) ([1]; compared with the vehicle group): -1 days; Tumor volume ([1]; day 7 (start of treatment), mean ± SEM, doses as in column head): 140 ± 9 mm^3; Tumor volume ([1]; day 9, mean ± SEM): 217 ± 20 mm^3; Tumor volume ([1]; day 13, mean ± SEM): 547 ± 43 mm^3; Tumor volume ([1]; day 16, mean ± SEM): 914 ± 92 mm^3; Tumor volume ([1]; day 20, mean ± SEM): 1438 ± 239 mm^3; T/C ([1]; day 23): 120%; Tumor volume ([1]; day 23, mean ± SEM): 2102 ± 298 mm^3; Tumor Size at day 23 [1]: 2102 ± 298 mm^3; Tumor Size at day 23 ([1]; listed as crizotinib): 2,102 mm^3; antitumor activity (in words) ([1]; doses as in Table 14): no antitumor activity; tolerability / body weight loss (in words) ([1]; doses as in Table 14): More severe body weight loss |
| C#Cc1cccc(Nc2ncnc3cc(OCCOC)c(OCCOC)cc23)c1 [Erlotinib, erlotinib, reference compound] |  |  |  | tolerability / body weight loss (in words) ([1]; doses as in Table 14): More severe body weight loss |
| B1 |  |  |  | binding to c-Met (in words) (c-Met-Fc fusion protein): No binding was measurable; Kd (c-Met-Fc fusion protein): > 1000 nM |
| B2 |  |  |  | binding to c-Met (in words) (c-Met-Fc fusion protein): No binding was measurable; Kd (c-Met-Fc fusion protein): > 1000 nM |
| B3 |  |  |  | binding to c-Met (in words) (c-Met-Fc fusion protein): No binding was measurable; Kd (c-Met-Fc fusion protein): > 1000 nM |
| B4 | 90.9 C. |  |  |  |
| B5 | 87 C. |  |  |  |
| B6 | 76.8 C. |  |  |  |
| B7 | 88.2 C. |  |  |  |
| B8 | 86.2 C. |  |  |  |
| B9 | 80 C. |  |  |  |
| B10 | 85.3 C. |  |  |  |
| B11 |  | 425000 M⁻¹ s⁻¹ | 0.00249 s⁻¹ |  |
| B12 |  | 321000 M⁻¹ s⁻¹ | 0.000536 s⁻¹ |  |
| B13 |  | 188000 M⁻¹ s⁻¹ | 0.00512 s⁻¹ |  |
| B14 |  | 289000 M⁻¹ s⁻¹ | 0.0086 s⁻¹ |  |
| B15 |  | 45100 M⁻¹ s⁻¹ | 0.0323 s⁻¹ |  |
| B16 |  | 440000 M⁻¹ s⁻¹ | 0.00015 s⁻¹ |  |
| B17 |  | 185000 M⁻¹ s⁻¹ | 0.00032 s⁻¹ |  |
| B18 |  | 475000 M⁻¹ s⁻¹ | 0.00127 s⁻¹ |  |
| B19 |  | 329000 M⁻¹ s⁻¹ | 0.0012 s⁻¹ |  |
